Experimental data from patent US20240117454.

T1: Bovine neck ligament-derived elastin (SIGMA, E1625), P04985
T1 chain: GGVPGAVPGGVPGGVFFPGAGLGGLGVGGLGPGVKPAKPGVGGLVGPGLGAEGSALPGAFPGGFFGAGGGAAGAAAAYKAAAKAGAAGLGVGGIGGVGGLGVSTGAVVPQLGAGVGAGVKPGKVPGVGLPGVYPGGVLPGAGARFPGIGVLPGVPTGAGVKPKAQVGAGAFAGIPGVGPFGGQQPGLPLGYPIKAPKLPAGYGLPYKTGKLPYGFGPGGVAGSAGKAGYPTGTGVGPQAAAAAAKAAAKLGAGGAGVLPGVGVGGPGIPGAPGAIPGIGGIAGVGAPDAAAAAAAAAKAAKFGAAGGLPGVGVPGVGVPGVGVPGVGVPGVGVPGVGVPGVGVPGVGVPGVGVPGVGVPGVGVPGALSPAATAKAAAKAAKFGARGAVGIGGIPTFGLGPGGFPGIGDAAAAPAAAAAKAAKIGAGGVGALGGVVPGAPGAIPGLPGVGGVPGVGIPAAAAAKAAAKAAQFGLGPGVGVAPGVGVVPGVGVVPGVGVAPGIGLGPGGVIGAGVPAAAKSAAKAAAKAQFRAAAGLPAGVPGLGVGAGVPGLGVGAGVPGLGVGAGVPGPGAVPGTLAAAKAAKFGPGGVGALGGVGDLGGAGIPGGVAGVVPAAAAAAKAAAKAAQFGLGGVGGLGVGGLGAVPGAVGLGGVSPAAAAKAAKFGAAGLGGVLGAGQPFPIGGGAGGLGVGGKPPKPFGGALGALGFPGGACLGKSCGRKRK


Tests used:
[1] = biological target: T1, Bovine neck ligament-derived elastin …
[2] = biological target: bovine Achilles tendon-derived collagen (SIGMA, C9879)

| Protein | elastin degrading activity (amount of peptides liberated, relative value to savinase) [1] | collagen degrading activity (amount of peptides liberated, relative value to savinase) [2] |
| --- | --- | --- |
| beta-lytic metallopeptidase (BLP) (protein) SAQGHGLSGEDLVYSYDEMFDFDIDAYLAKHAPHLHKHSEEISHWAGYSGISPKVLIALMEQQSGAVSAKRATNRPFGKLARADGFGAQTREVALALRESLYERDPDGAKGPVTLARANPLQALFERSGDNEPAAALRGDGEFQLVYGRLFNEPRQAKAASDRFAKAGPDVQPLSPNGL | BLP was equivalent in elastin degrading activity to savinase | had significantly lower collagen degrading activity as compared to savinase |
| BLP homologue derived from Lysobacter gummosus (LgBLP) (protein) AERGLSGQDLVYSYDEMFDFDIDAYLAKNAPHLSRHAESISHWAGYSGISPKVLIALMEQQSGAITRKHAAADAAKRPFGALAKAKDFNGQTREVAQALREALYENDGPDAKGAVTVARANPLQALFERAGASQASAKLSGDGEFQLVYGRLFNEPRQAQAPSARFAKAGPDVQPLSP | LgBLP had lower elastin degrading activity as compared to savinase |  |
